Source: paper PMC8406324

Target: HTNV Gn as incorporated in virus-like particles (Hantaan virus (HTNV))
Test: cryo-EM structure

## HTNV Gn as incorporated in virus-like particles (natural protein)
  stoichiometry N: 4
